Test results published in PMC10157491.

The sequences below were run against T1, His6-NhaR (Escherichia coli MG1655?) (UniProt P0A9G2) (assay: EMSA). Conditions: NhaR EMSA: 20 mM Tris-HCl pH 8.0, 100 mM NaCl, 1 mM DTT, 10% glycerol, 125 ug/mL BSA, 10 ng DNA in 10 uL, 25 C 20 min; Fis: 10 mM Tris-HCl pH 8.0, 150 mM NaCl ….
T1 sequence: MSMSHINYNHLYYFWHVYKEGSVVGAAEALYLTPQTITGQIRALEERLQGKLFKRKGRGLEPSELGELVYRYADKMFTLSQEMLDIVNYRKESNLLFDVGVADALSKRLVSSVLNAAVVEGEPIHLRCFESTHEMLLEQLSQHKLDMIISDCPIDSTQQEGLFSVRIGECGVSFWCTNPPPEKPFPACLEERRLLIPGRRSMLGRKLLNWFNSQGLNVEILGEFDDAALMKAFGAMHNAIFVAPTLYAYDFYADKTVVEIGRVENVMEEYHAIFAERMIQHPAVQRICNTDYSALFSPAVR

binding, binds:
CCGTCAAAAACGCATCTCACCGCTGATGGCGCAAATTCTTCAATAGCTCGTAAAAAACGAATTATTCCTACACTATAATCTGATTTTAACGATGATTCGTGCGGGGTAAAATAGTAAAAACGATCTATTCACCTGAAAGAGAAATAAAAAGTGAAACATCTGCATCGATTCTTTAGCAGTGATGCCTCGGGA (double strand) [PnhaA], CAATTAAATCCGTGAGTGCCGTAGCGCAGCCTTTCATCAGGACTTTCGAAAAATCCGAAATCATGCATCGGAATTTACTGATTTAATTATTTTAATCCTAATTTATTTTGAAAAAGGCATTGGGATTTATGCCGTATTCCTGAAGA (double strand) [PpgaA], CCCGGTAATCTATTGTGGGAATTTAATTTAAGTGCAGAAGTAATATTTTCGCCGGATTTTATTCGGAATATCCTGCTTATCCTCGTGCTGTTTCTCACGTAGTCTATAATTTCCTTTTTAAGCCCACAGGAGAGCAAC (double strand) [PosmC]
